Data: patent publication US20230144436A1, “MUSCLE TARGETING COMPLEXES AND USES THEREOF FOR TREATING MYOTONIC DYSTROPHY” (Dyne Therapeutics, Inc., priority 2020, published 2023)

Experiments:
DMPK [1] = assay: DMPK knockdown by anti-TfR1 antibody-oligonucleotide conjugates in DM1 patient myotubes; format: cell-based, human; details: for % knockdown of DMPK in cells from human DM1 patients using Antibody-DMPK ASO conjugate: DM1 patient myotubes, conjugate with control DMPK-ASO, 72 hours, concentration not stated (0.5, 5, 50 nM tested); for activity in delivering a payload (DMPK ASO) and achieving DMPK knockdown compared to the control antibody 15G11: conjugates with control DMPK-ASO, in either cyno cells or human DM1 patient cells
Procedure: (§1) The purified complexes were then tested for cellular internalization and inhibition of the target gene, DMPK. Non-human primate (NHP) or DM1 (donated by DM1 patients) cells were grown in 96-well plates and differentiated into myotubes for 7 days. Cells were then treated with escalating concentrations (0.5 nM, 5 nM, 50 nM) of each complex for 72 hours. Cells were harvested, RNA was isolated, and reverse transcription was performed to generate cDNA. qPCR was performed using TaqMan kits specific for Ppib (control) and DMPK on the QuantStudio 7. The relative amounts of remaining DMPK transcript in treated vs non-treated cells was were calculated and the results are shown in Table 14 and FIG. 20.
as §1, with “of” for “of the target gene,”, “in” for “in Table 14 and”, “23.” for “20.”

DMPK [2] = assay: DMPK knockdown by anti-TfR1 antibody-oligonucleotide conjugates in NHP myotubes; format: cell-based, non-human primate; details: conjugate with control DMPK-ASO, 72 hours, concentration not stated (0.5, 5, 50 nM tested)
Procedure: as §1
as §1, with “of” for “of the target gene,”, “in” for “in Table 14 and”, “23.” for “20.”

hTfR1 = hTfR1 (Homo sapiens, UniProt P02786); assay: Binding kinetics of anti-TfR1 antibodies on Carterra LSA, hTfR1; details: Carterra LSA at 25 C
Procedure: Selected anti-TfR1 antibodies were tested for their binding affinity to human TfR1 for measurement of Ka (association rate constant), Kd (dissociation rate constant), and KD (affinity). […] The binding experiment was performed on Carterra LSA at 25 C. An anti-mouse IgG and anti-human IgG antibody “lawn” was prepared on a HC30M chip by amine coupling. 59 IgGs (58 mouse mAbs and 1 human mAb) were captured on the chip. Dilution series of hTfR1, cyTfR1, and hTfR2 were injected to the chip for binding (starting from 1000 nM, 1:3 dilution, 8 concentrations).
Binding data were referenced by subtracting the responses from a buffer analyte injection and globally fitting to a 1:1 Langmuir binding model for estimate of Ka (association rate constant), Kd (dissociation rate constant), and KD (affinity) using the Carterra™ Kinetics software. 5-6 concentrations were used for curve fitting.

Chain of hTfR1 (P02786 whole entry): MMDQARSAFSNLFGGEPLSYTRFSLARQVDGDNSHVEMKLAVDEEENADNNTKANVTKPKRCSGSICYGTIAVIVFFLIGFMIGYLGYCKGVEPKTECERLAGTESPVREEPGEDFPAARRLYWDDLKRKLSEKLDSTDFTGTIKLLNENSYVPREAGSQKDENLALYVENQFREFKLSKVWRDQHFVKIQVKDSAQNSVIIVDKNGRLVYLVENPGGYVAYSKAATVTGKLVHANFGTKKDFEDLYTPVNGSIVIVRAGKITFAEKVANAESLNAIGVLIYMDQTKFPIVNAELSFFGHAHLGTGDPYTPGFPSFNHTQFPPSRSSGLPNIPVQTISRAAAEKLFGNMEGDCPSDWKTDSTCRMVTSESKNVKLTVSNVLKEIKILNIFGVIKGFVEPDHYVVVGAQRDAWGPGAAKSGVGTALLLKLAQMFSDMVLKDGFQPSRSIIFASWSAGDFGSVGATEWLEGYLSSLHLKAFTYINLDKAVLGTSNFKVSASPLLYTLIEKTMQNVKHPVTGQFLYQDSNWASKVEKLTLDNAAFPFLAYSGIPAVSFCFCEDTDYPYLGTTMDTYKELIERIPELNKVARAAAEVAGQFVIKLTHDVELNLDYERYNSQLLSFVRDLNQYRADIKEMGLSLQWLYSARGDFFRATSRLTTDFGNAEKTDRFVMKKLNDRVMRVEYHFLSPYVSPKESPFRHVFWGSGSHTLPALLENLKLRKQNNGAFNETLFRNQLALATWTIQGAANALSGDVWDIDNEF

Row | Molecule | % knockdown of DMPK in cells from human DM1 patients using Antibody-DMPK ASO conjugate (DMPK [1]) [%] | activity in delivering a payload (DMPK ASO) and achieving DMPK knockdown compared to the control antibody 15G11 (DMPK [1]) | % knockdown of DMPK in NHP cells using Antibody-DMPK ASO conjugate (DMPK [2]) [%] | dissociation rate constant (koff) (hTfR1) [µM]
1 | 8-K6 (antibody, V domains shown) VH: QVHLQQPGAELVKPGASVKMSCKASGYTFTSYWITWVKQRPGQGLEWIGDIFPNSGRTNYDEKFKSKATLTVDTSSSTAYMQLSSLTSEDSAVYFCAREGNFGSLDYWGQGTTLTVSS VL: QIVLTQSPAIMSASPGEKVTMTCSANSNLNYMNWYHQKSGTSPKRWIYDTSKLASGVPARFSASGSGTSYSLTISSMEAEDAATYYCQQWSRNPLTFGAGTRLELK | 34 | superior activity | 73 | –
2 | 8-K06 (antibody, V domains shown) VH: QVHLQQPGAELVKPGASVKMSCKASGYTFTSYWITWVKQRPGQGLEWIGDIFPNSGRTNYDEKFKSKATLTVDTSSSTAYMQLSSLTSEDSAVYFCAREGNFGSLDYWGQGTTLTVSS VL: QIVLTQSPAIMSASPGEKVTMTCSANSNLNYMNWYHQKSGTSPKRWIYDTSKLASGVPARFSASGSGTSYSLTISSMEAEDAATYYCQQWSRNPLTFGAGTRLELK | – | – | – | 10
3 | 5-H12 (antibody, V domains shown) VH: QIQLQQSGPELVRPGASVKISCKASGYSFTDYCINWVNQRPGQGLEWIGWIYPGSGNTRYSERFKGKATLTVDTSSNTAYMQLSSLTSEDSAVYFCAREDYYPYHGMDYWGQGTSVTVSS VL: DIVLTQSPTSLAVSLGQRATISCRASESVDGYDNSFMHWYQQKPGQPPKLLIFRASNLESGIPARFSGSGSRTDFTLTINPVEAADVATYYCQQSSEDPWTFGGGTKLEIK | 57 | superior activity | 88 | –
4 | 10-H02 (antibody, V domains shown) VH: EVQLVESGGDLVKPGGSLKLSCAASGFTFSDYGMHWVRQGPEKGLEWVAYINSGSSTIYYADTVKGRFTISRDNAKNTLFLQMTSLRSEDTAMYYCARPGDYDNYAMDYWGQGTSVTVSS VL: DIVMTQSHKFLSTSVGDRVSITCKASQDVSVAVAWYQQKPGQSPKLLIYWAYTRHTGVPDRFTGSGSGTEYTLTISSVQAEDLALYYCQQHYNTPPWTFGGGTKLEIK | – | – | – | 342
5 | 3-E5 (antibody, V domains shown) VH: EIQMKQSGAELVKPGASVKISCKASGYSFTGYNMNWVKQSHGKSLEWIGNINPYYGSTGYNQKFKGKATLTVDKSSSTAYMQLNSLTSEDSAVYYCARGDYGYDEGTWFAYWGQGTLVTVSA VL: DIVMSQSPSSLAVSAGEKVTMSCKSSQSLLNSRTRKNYLAWYQQKPEQSPKLLIYWASTRESGVPDRFTGSGSGTDFTLTISSVQAEDLAVYYCKQSYNLPFTFGSGTKLEIK | 71 | superior activity | 59 | –
6 | 3-E05 (antibody, V domains shown) VH: EIQMKQSGAELVKPGASVKISCKASGYSFTGYNMNWVKQSHGKSLEWIGNINPYYGSTGYNQKFKGKATLTVDKSSSTAYMQLNSLTSEDSAVYYCARGDYGYDEGTWFAYWGQGTLVTVSA VL: DIVMSQSPSSLAVSAGEKVTMSCKSSQSLLNSRTRKNYLAWYQQKPEQSPKLLIYWASTRESGVPDRFTGSGSGTDFTLTISSVQAEDLAVYYCKQSYNLPFTFGSGTKLEIK | – | – | – | 10
7 | 9-C04 (antibody, V domains shown) VH: EVQLMESGGDLVKPGGSLKLSCAASGFTFSSYGLSWVRQTPDKRLEWVATITSGGSYTYYPDSVKGRFTISRDNARNTLYLQMFSLKSEDTAMYYCALWSLDYWGQGTTLTVSS VL: QIVLTQSPAIMSASPGEKVTMTCSANSSLSYMHWYQQKPGTSPKRWIYDTSELASGVPARFSGSGSGTSYSLTISSMEAEDAATYYCHQRRSYPWTFGGGTKLEIK | – | – | – | 575
8 | 8-D15: anti-TfR1 antibody, VH SEQ ID NO: 132, VL SEQ ID NO: 133 (antibody, V domains shown) VH: QVQLKESGPGLVAPSQSLSITCTVSGFSLTSYAITWVRQSPGKGLEWLGLIWTGGGTNYNSALKSRLSISKDNSKSQVFLKMNSLQTDDTARYYCARIYDGYYRYFDVWGTGTTVTVSS VL: RIVLTQTPKFLLVSAGDRVTMTCKASQSVSNDVAWYQQKPGQSPKLLIYYASNRYTGVPDRFTGSGYGTDFTFTISTVQAEDLAVYFCQQDYSSPWTFGGGTKLEIK | – | – | – | 257
9 | 6-D03 (antibody, V domains shown) VH: QVQLQQPGAELVKPGASVKMSCKASGYTFTRHWITWVKQRPGQGLEWIGDIYPGSGRTNYNEKFKSTATLTVDTSSSTAYMQLSSLTSEDSAVYYCARDGYLYINYFDYWGQGTTLTVSS VL: ENVLTQSPAIMSASPGEKVTMTCSASSSVSFMHWFQQKSSTSPKLWIYDTSKLASGVPGRFSGSGSGSSYSLTISSMAAEDVATYYCFQGSGYPYTFGGGTKLEIK | – | – | – | 107
10 | 6-D3 (antibody, V domains shown) VH: QVQLQQPGAELVKPGASVKMSCKASGYTFTRHWITWVKQRPGQGLEWIGDIYPGSGRTNYNEKFKSTATLTVDTSSSTAYMQLSSLTSEDSAVYYCARDGYLYINYFDYWGQGTTLTVSS VL: ENVLTQSPAIMSASPGEKVTMTCSASSSVSFMHWFQQKSSTSPKLWIYDTSKLASGVPGRFSGSGSGSSYSLTISSMAAEDVATYYCFQGSGYPYTFGGGTKLEIK | −5 | – | −8 | –
11 | 3-A4 (antibody, V domains shown) VH: EVQLQQSGAELVRPGASVKLSCTASGFNIKDDYMYWVKQRPEQGLEWIGWIDPENGDTEYASKFQDKATVTADTSSNTAYLQLSSLTSEDTAVYYCTLWLRRGLDYWGQGTSVTVSS VL: DIVMTQAAPSVPVTPGESVSISCRSSKSLLHSNGYTYLFWFLQRPGQSPQLLIYRMSNLASGVPDRFSGSGSGTAFTLRISRVEAEDVGVYYCMQHLEYPFTFGGGTKLEIK | 70 | superior activity | 77 | –
12 | 3-A04 (antibody, V domains shown) VH: EVQLQQSGAELVRPGASVKLSCTASGFNIKDDYMYWVKQRPEQGLEWIGWIDPENGDTEYASKFQDKATVTADTSSNTAYLQLSSLTSEDTAVYYCTLWLRRGLDYWGQGTSVTVSS VL: DIVMTQAAPSVPVTPGESVSISCRSSKSLLHSNGYTYLFWFLQRPGQSPQLLIYRMSNLASGVPDRFSGSGSGTAFTLRISRVEAEDVGVYYCMQHLEYPFTFGGGTKLEIK | – | – | – | 195
13 | 4-C05 (antibody, V domains shown) VH: QVQLQQSGAELMKPGASVKISCKATGYTFSNYWIEWVKQRPGHGLEWIGEILPGSGSTNYNENFKGKATFTADTSSNTAYMQLSSLTSEDSAVYYCARRGAYGNFHYWGQGTTLTVSS VL: EIVLTQSPALMAASPGEKVTITCSVSSSISSSNLHWYQQKSETSPKPWIYGTSNLASGVPVRFSGSGSGTSYSLTISSMEAEDAATYYCQQWRSYPYTFGGGTKLEIK | – | – | – | 48.5
14 | 9-D4 (antibody, V domains shown) VH: QVQLQQSGTELARPGASVKLSCKASGFTFTDYGINWVKQRTGQGLEWIGEIYPSSGNSYYNEKFKAKATLTADKSSSTAYMELRSLTSEDSAVYFCARSTYYGSPIDYWGQGTTLTVSS VL: DIVMTQSHKFMSTPVGDRVSITCKASQDVDTTVAWYQQKPGQSPKLLIYWASTRQIGVPDRFTGSGSGTDFTLTISNVQSEDLADYFCQQYSTYPLTFGGGTKLEIK | 62 | superior activity | 42 | –
15 | 9-D04 (antibody, V domains shown) VH: QVQLQQSGTELARPGASVKLSCKASGFTFTDYGINWVKQRTGQGLEWIGEIYPSSGNSYYNEKFKAKATLTADKSSSTAYMELRSLTSEDSAVYFCARSTYYGSPIDYWGQGTTLTVSS VL: DIVMTQSHKFMSTPVGDRVSITCKASQDVDTTVAWYQQKPGQSPKLLIYWASTRQIGVPDRFTGSGSGTDFTLTISNVQSEDLADYFCQQYSTYPLTFGGGTKLEIK | – | – | – | 246
